This is an account of results in article PMC10229431, “Structures of the sulfite detoxifying F420-dependent enzyme from Methanococcales” (Nature Chemical Biology, 2023).

Read-outs that look alike come from different tables or passages of the source.

For one data set, the target named is T1, MjFsr (Methanocaldococcus jannaschii, UniProt Q58280).
T1 construct: gene fsr; full length, native purification from M. jannaschii grown on sulfite; homotetramer, residues to 620
T1 sequence (Q58280 1-620): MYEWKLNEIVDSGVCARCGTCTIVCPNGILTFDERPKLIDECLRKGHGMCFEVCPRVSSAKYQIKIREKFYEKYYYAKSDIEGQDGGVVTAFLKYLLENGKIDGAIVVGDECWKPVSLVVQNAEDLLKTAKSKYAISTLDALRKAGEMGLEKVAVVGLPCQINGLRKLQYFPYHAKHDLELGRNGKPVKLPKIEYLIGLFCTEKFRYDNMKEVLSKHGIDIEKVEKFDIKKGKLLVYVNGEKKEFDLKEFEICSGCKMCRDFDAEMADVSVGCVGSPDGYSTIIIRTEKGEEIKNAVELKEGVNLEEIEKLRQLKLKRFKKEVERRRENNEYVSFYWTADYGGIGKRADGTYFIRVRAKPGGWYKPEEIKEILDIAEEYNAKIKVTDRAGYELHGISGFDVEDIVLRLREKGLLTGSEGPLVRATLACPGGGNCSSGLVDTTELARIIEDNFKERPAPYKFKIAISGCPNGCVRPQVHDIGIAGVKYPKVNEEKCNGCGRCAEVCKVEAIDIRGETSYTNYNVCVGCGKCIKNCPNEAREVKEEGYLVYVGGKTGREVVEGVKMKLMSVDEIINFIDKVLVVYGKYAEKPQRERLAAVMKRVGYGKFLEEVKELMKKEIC
Kind of data set: X-ray crystal structure, […] Å. It is filed as binding. The note with it: F420H2-oxidase domain.

The next data set relates to T2, MtFsr.
T2 construct: gene fsr; full length, native purification from M. thermolithotrophicus grown on sulfite (assays) or sulfate (crystals); FAD, siroheme, six [4Fe-4S] clusters per subunit
As to the kind of experiment: F420H2 oxidation followed at […] nm. The class given is biochemical, Methanothermococcus thermolithotrophicus. As to conditions: anaerobic, read-out: Apparent Km.

Data set [1] addresses coenzyme F420-dependent sulfite reductase (Group I Fsr) from Methanothermococcus thermolithotrophicus (Methanothermococcus thermolithotrophicus (endogenous in strain DSM 2095)). As to the kind of experiment: native gel or EMSA; anaerobic high-resolution clear-native PAGE (8-15% gradient) of cell extracts of cultures grown on 2 mM Na2S or 2 mM Na2SO3.
The target is the same in data set [2]. As to the kind of experiment: SEC; purified MtFsr on Superdex 200 Increase 10/300 GL, 0.4 ml/min, 25 mM Tris-HCl pH 7.6, 10% v/v glycerol, 2 mM DTT, anaerobic; standards conalbumin, aldolase, ferritin; apparent molecular weight.
For data set [3] the target is unchanged. Kind of data set: crystal structure; MtFsr at 11 mg/ml cocrystallized with FAD and F420H2; 200 mM lithium sulfate, 100 mM Bis-Tris pH 5.5, 25% w/v PEG 3350; anaerobic, 20 °C; four homotetramers in the asymmetric unit.
Data set [4] deals with the molecule itself. As to the kind of experiment: crystal structure; MjFsr at 6.1 mg/ml; 45% v/v 2-methyl-2,4-pentanediol, 100 mM Bis-Tris pH 5.5, 200 mM calcium chloride; anaerobic, 20 °C; two half homotetramers in the asymmetric unit.

With `Cc1cc2nc3c(=O)[nH]c(=O)nc-3n(C[C@H](O)[C@H](O)[C@H](O)COP(=O)(O)OP(=O)(O)OC[C@H]3O[C@@H](n4cnc5c(N)ncnc54)[C@H](O)[C@@H]3O)c2cc1C` [FAD], the “X-ray crystal structure, 2.30 Å” value on MjFsr is on record as “The active site of the F420H2-oxidase domain of Fsr contains a flavin adenine dinucleotide (FAD”. Regarding `O=NO` [NO2^−], the Km in the data set on MtFsr (0-500 µM NaNO2, 50 µM F420H2, 200 mM KH2PO4 pH 7.0, 50 °C) was found to be 2.5 ± 0.2 µM.

Turning to `O=S(O)O` [SO3^2−], in the data set with MtFsr (0-500 µM Na2SO3, 50 µM F420H2, 200 mM KH2PO4 pH 7.0, 50 °C), the Km was determined as 15.6 ± 2 µM. For “coenzyme F420-dependent sulfite reductase (Group I Fsr) from Methanothermococcus thermolithotrophicus”, the stoichiometry N in data set [1], in data set [2] and in data set [3] was 4 throughout.

B1: coenzyme F420-dependent sulfite reductase (Group I Fsr) from Methanocaldococcus jannaschii (enzyme, UniProt Q58280 1-620, looked up)
chain: MYEWKLNEIVDSGVCARCGTCTIVCPNGILTFDERPKLIDECLRKGHGMCFEVCPRVSSAKYQIKIREKFYEKYYYAKSDIEGQDGGVVTAFLKYLLENGKIDGAIVVGDECWKPVSLVVQNAEDLLKTAKSKYAISTLDALRKAGEMGLEKVAVVGLPCQINGLRKLQYFPYHAKHDLELGRNGKPVKLPKIEYLIGLFCTEKFRYDNMKEVLSKHGIDIEKVEKFDIKKGKLLVYVNGEKKEFDLKEFEICSGCKMCRDFDAEMADVSVGCVGSPDGYSTIIIRTEKGEEIKNAVELKEGVNLEEIEKLRQLKLKRFKKEVERRRENNEYVSFYWTADYGGIGKRADGTYFIRVRAKPGGWYKPEEIKEILDIAEEYNAKIKVTDRAGYELHGISGFDVEDIVLRLREKGLLTGSEGPLVRATLACPGGGNCSSGLVDTTELARIIEDNFKERPAPYKFKIAISGCPNGCVRPQVHDIGIAGVKYPKVNEEKCNGCGRCAEVCKVEAIDIRGETSYTNYNVCVGCGKCIKNCPNEAREVKEEGYLVYVGGKTGREVVEGVKMKLMSVDEIINFIDKVLVVYGKYAEKPQRERLAAVMKRVGYGKFLEEVKELMKKEIC
notes: Group I coenzyme F420-dependent sulfite reductase (Fsr) of Methanocaldococcus jannaschii DSM 2661; Native enzyme, no tag; Each chain carries FAD, six [4Fe-4S] clusters and a siroheme; also called MjFsr; source: purified natively from M. jannaschii DSM 2661 cells under anaerobic atmosphere (Q Sepharose, Source15Phe, Superdex 200)
With B1, the “stoichiometry N” value in data set [4] worked out at 4.
